Data on three molecules can be found in article PMC7790460, “An RNA Repair Operon Regulated by Damaged tRNAs”.

The target in data set [1] is RtcR transcriptional activator (full-length S. Typhimurium RtcR) (S. Typhimurium). The data set is described as follows: SEC; RtcR (48 uM) mixed with 48 uM refolded 5' tRNA-Leu(UAG) halves ending in 2',3'-cyclic phosphate; Superdex 200 Increase 10/300; 20 mM Tris-HCl pH 7.5, 100 mM NaCl, 1 mM MgCl2, 2% glycerol, 0.5% Tween 20, 1 mM ATP; peaks analysed by SDS-PAGE and denaturing gels. (In general: In gel filtration, larger molecules generally elute earlier.)

For another data set, the target named is T1, RtcR (full-length) (Salmonella enterica serovar Typhimurium …, UniProt Q8ZLH7 1-527).
T1 sequence: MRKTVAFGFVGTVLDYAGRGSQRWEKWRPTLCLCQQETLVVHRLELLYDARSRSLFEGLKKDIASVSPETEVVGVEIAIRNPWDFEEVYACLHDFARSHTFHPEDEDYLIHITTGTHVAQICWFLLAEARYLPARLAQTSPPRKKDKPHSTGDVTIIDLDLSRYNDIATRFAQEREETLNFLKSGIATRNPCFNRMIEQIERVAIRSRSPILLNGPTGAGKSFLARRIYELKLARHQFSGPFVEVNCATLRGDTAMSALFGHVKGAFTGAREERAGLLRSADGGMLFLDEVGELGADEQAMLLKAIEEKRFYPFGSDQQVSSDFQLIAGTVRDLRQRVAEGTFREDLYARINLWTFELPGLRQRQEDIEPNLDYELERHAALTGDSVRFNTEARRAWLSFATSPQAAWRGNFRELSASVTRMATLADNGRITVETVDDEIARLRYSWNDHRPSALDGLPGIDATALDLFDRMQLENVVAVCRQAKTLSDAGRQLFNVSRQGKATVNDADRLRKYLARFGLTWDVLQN
The data set is described as follows: EMSA; 1 mM ATP; 20 mM Tris-HCl pH 7.5, 50 mM NaCl, 1 mM MgCl2, 0.05% Tween 20; 1 mM ATP for RtcR; 30 min at 4 C then 30 min at room temperature; RNA 1 nM. To be noted: protein: recombinant; chain copies: 2; label: 5'-32P (EMSA). In general terms: A gel shift assay detects complexes by their altered migration in electrophoresis.

The target in another data set is T2, RtcR CARF domain (Salmonella enterica serovar Typhimurium …, UniProt Q8ZLH7 1-188).
T2 sequence: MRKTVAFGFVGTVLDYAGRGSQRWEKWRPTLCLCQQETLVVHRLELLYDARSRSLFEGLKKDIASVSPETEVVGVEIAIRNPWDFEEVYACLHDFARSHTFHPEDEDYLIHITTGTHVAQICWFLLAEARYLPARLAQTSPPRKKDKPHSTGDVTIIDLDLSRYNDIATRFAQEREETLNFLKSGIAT
In words: EMSA; 20 mM Tris-HCl pH 7.5, 50 mM NaCl, 1 mM MgCl2, 0.05% Tween 20; 1 mM ATP for RtcR; 30 min at 4 C then 30 min at room temperature; RNA 1 nM. To be noted: protein: recombinant; chain copies: 2; label: 5'-32P (EMSA).

Values joined by “and” are separate entries in the source; they are usually repeats but may differ in a detail not shown here. Equal entries are not always repeated.

“RtcR transcriptional activator (full-length S. Typhimurium RtcR) (natural protein)”: the stoichiometry N in data set [1] is 6 and 2.

B1: tRNALeu(UAG) 5' half, after G of anticodon, cyclic phosphate (structured_RNA)
RNA: GCGGGAGUGGCGAAAUUGGUAGACGCACCAGAUUUAG
modifications: 2',3'-cyclic phosphate 3' end
Turning to B1, the “apparent K (half saturation)” value is approximately 125 nM with RtcR (full-length) and approximately 200 nM with RtcR CARF domain.

B2: tRNALeu(UAG) 5' half, after G of anticodon, 3'-phosphate (structured_RNA)
RNA: B1 RNA
modifications: 3'-phosphate
Regarding B2, the binding result in the data set with RtcR CARF domain was “no binding”.

For orientation: stoichiometry N means the number of molecules, sites or subunits per partner or assembly.
